The values below come from PMC7743911 (Nature communications, 2015).

Experiment [1] addresses T1, STAT5B wild type (residues 128 to 717), non-phosphorylated (human, UniProt P51692 128-717).
T1 sequence (looked up): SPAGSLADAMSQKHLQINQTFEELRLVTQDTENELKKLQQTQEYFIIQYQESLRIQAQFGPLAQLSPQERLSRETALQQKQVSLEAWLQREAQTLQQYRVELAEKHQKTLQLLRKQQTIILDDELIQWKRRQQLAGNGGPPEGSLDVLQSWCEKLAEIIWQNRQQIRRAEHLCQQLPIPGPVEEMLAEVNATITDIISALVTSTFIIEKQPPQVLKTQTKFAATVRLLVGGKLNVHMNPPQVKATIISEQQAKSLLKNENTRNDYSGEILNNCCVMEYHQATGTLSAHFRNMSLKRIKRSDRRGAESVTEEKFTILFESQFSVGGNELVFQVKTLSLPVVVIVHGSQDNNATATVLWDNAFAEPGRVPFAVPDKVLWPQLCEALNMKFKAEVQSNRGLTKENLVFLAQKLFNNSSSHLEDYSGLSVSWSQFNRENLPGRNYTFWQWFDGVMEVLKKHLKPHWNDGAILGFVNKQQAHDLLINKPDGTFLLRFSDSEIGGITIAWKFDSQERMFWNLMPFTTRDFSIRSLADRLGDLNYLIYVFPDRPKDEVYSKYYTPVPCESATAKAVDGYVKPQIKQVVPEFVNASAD
Description: SPR.

For experiment [2], the target named is T2, STAT5B N642H mutant (residues 128 to 717), non-phosphorylated (human, UniProt P51692 128-717, N642H).
T2 sequence (looked up): T1 sequence (looked up) with N515H
In words: SPR.

Residue numbers refer to the chain shown, from its start. Where “and” joins values, the source holds several entries; their conditions need not be identical. Equal entries are not always repeated. Non-standard residues stand in square brackets, D forms with d. No end group written: not given here. pY = N[C@@H](Cc1ccc(OP(=O)(O)O)cc1)C(=O)O

As to KAVDG[pY]VKPQI [STAT5B phosphopeptide KAVDG(p)YVKPQI], the Kd was 15.6 µM and 14 µM in experiment [1]; 3.23 µM and 2.9 µM in experiment [2].

The term Kd denotes the equilibrium constant for the complex coming apart. Low values mean a tighter complex, high ones a looser complex.
